40 sequences from the nanobody polyreactivity screen of Harvey et al. (2022) can be followed below.

The data set in a line: yeast display, Sf9 membrane polyspecificity reagent, FACS + sequencing; frameworks hold sequencing errors. An outline of the steps: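 Sorting gates, low and high (top ~1%), were placed on anti-HA fluorescence to track expression and on streptavidin fluorescence to track reagent binding. A clone's polyreactivity label is taken from the gate it came out of. The reagent was 10% biotinylated, detergent-solubilized Sf9 membrane, applied for 1 hour at 4 °C to galactose-induced yeast display cells.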
Take “QVQLVESGGGLVQAGGSLRLSCAASGSISDSYAMGWYRPAPGKERELVAAITSGDSTYYADSVKGRFTISRDNAKNTVYLQMNSLKPEDTAVYYCAKRVSRVLGYGFTDWSEYDYWGQGTQVTVSS”: the “polyreactivity (PSR sort gate)” value was “low polyreactivity”.

Regarding “QVQLVESGGGLVQAGGSLRLSCAASGSISDSYAMGWYRQAPGKERELVAAITSGDSTYYADSVKGRFTISRDNAKNTVYLQMNSLKPEDTAFYYCAKRVSRVRGYGFTDWSEYDYWGQGTQVTVSS”, the “polyreactivity (PSR sort gate)” value is given as “low polyreactivity”.

With “QVQLVESGGGLVQAGGSLRLSCAASGSISFYYGIGWYRHAPGKERELVAALNNTGSTNYADSVKGRFTISRDNAKNTVYLQMNSLKPEDTAVYYCNAEQWQSSEYGEWSKRDYWGHGTQVTVSS”, the “polyreactivity (PSR sort gate)” value is “low polyreactivity”.

Regarding “QVQLVESGGGLVQAGGSLRLSCAASGSISGWYAMGWYRHAPGKERELVADISSIDGSTYYADSVKGRFTISRDNEKNTVYLQMNSLKPEDTSVYYCSADRGFYYEYDYWGQGTQVTVSS”, the “polyreactivity (PSR sort gate)” value was “low polyreactivity”.

For “QVQLVESGGGLVQAGGSLRLSCAASGSISGYNAMGWYRQAPGKERELVAVITTDGSTNYADSVKGRFTISRDNAKNTVYLQMNSLKPEDTAVYYCNTDDGWRLLWEYDYWGQGTQVTVSS”, the “polyreactivity (PSR sort gate)” value is listed as “low polyreactivity”.

With “QVQLVESGGGLVQAGGSLRLSCAASGSISGYYAMGWNRQAPGKERELVASIRYTGARTYYADSVKGRFTISRDNAKNTVYLQMNSLKPEDTAVYYCAADVKRDRVWGGDYWGQGTQVTVSS”, the “polyreactivity (PSR sort gate)” value is “low polyreactivity”.

As for “QVQLVESGGGLVQAGGSLRLSCAASGSISGYYAMGWSRQAPGKERELVASIRYTGARTYYADSVKGRFTISRDNAKNTVYLQMNSLKPEDTAVYYCNAYTRYPFYFVTSKYDYWGQGTQVTVSS”, the “polyreactivity (PSR sort gate)” value was “low polyreactivity”.

As to “QVQLVESGGGLVQAGGSLRLSCAASGSISGYYAMGWYRQAPGKERELVASIRYTGARTYYADSVMGRFTISRDTAKNNVYLQMNSLKPEDTAVYYCAADVKRDRVWGGDYWGQGTQVTVSS”, the “polyreactivity (PSR sort gate)” value was “low polyreactivity”.

As for “QVQLVESGGGLVQAGGSLRLSCAASGSISIRNAMGWYRQAPGKERELVAAISRGGSTYYADSVKGRFTISRDNAKNTVYLQMNSLKPEDTAVYYCATDGGRYYRGREYAFKYYYWGQGTQVTVSS”, the “polyreactivity (PSR sort gate)” value was “high polyreactivity”.

“QVQLVESGGGLVQAGGSLRLSCAASGSISKINAMGWYRHAPGKERELVAAINTGDSTYYADSVKGRFTISRDNAKNTVYLQMNSLKPEDTAVYYCAAEGAPTGYDYWGQGTQVTVSS”: the “polyreactivity (PSR sort gate)” value is “low polyreactivity”.

With “QVQLVESGGGLVQAGGSLRLSCAASGSISKINAMGWYRQAPGKERELVAAINTGDSTYYADSVKGRFTISRDNAKNTVYLQMNSLKPEDTAVYYCAAEGSPNGYDYWGQGTQVTVSS”, the “polyreactivity (PSR sort gate)” value is “low polyreactivity”.

As to “QVQLVESGGGLVQAGGSLRLSCAASGSISLYAMGWYRQAPGKERELVAAITKSGGSTYYADSVKGRFTISRDNAKNTVYLQMNSLKPEDTAVYYCNRGGGERKYNYWGQGTQVTGSS”, the “polyreactivity (PSR sort gate)” value is given as “high polyreactivity”.

On to “QVQLVESGGGLVQAGGSLRLSCAASGSISNYYGMGWYRQAPGKERELVAAITWGGGRTNYADSVKGRFTISRDNAKNTVYLQMNSLKPEDTAVYYCAKVSVTHRYGAGGDYWGQGTQVTVSS”, for which the “polyreactivity (PSR sort gate)” value is listed as “low polyreactivity”.

For “QVQLVESGGGLVQAGGSLRLSCAASGSISQGNAMGWYRQAPGKERELVAAIRWTSGRTYYADSVKGRFTISRDNAKNTVSLEINSLKPEDPAVYYCAAYYVYYTPTLFDRDYWGQGTQVTVSS”, the “polyreactivity (PSR sort gate)” value is reported as “low polyreactivity”.

For “QVQLVESGGGLVQAGGSLRLSCAASGSISRYYAMGWYRQAPRKERELVAAISSNGGSTYYADSVKGRFTISRDNAKNSVYLQMYSLKPEDTAVYYCNAFYVGYIRYWTNKLVDYWGQGTQVTVSS”, the “polyreactivity (PSR sort gate)” value is given as “high polyreactivity”.

For “QVQLVESGGGLVQAGGSLRLSCAASGSISSFYAMGWYRQAPGKERELVAGITSGGSTNYADSVKGRFTISRDNAKNTVYLQMNSLKPEDTAVDYCAAVYKGAGTHFDVFVKEFDYWGQGTQVTVSS”, the “polyreactivity (PSR sort gate)” value is on record as “low polyreactivity”.

Turning to “QVQLVESGGGLVQAGGSLRLSCAASGSISSKNAMGWYRQAPGKEREFVAVISGTGGSTYYADSVKGRFTISRDNAKNTVYLQMNSLKPEDTAFYYCAAAASSIVSYGYTWTYGYWGQGTQVTVSS”, the “polyreactivity (PSR sort gate)” value is “low polyreactivity”.

Take “QVQLVESGGGLVQAGGSLRLSCAASGSISSSYAMGWYRQAPGKERELVAAIDGSDGTTYYADSVKGRYTISRDNAKNTVYLQMNSLKPEDTAFYYCAAEPLGYHAGATRYDYWGQGTQVTVSS”: the “polyreactivity (PSR sort gate)” value is on record as “high polyreactivity”.

Turning to “QVQLVESGGGLVQAGGSLRLSCAASGSISSVNAMGWYREAPGKERELVATISSGGSTYADSVKGRFTISRDNAKNTVYLQMNSLKPEDTAVYYCATYFVAYTFYYRWYRSYASFYYWGQGTQVTVSS”, the “polyreactivity (PSR sort gate)” value is “low polyreactivity”.

In the case of “QVQLVESGGGLVQAGGSLRLSCAASGSISSYYAMGWYRQATGKERELVAAISKSGGSTYYADSVKGRFTISRDNAKNTVYLQMNSLKPEDSAVYYCAARDYGWRYYRKYDYWGQGTQVTVSS”, the “polyreactivity (PSR sort gate)” value is given as “high polyreactivity”.

Take “QVQLVESGGGLVQAGGSLRLSCAASGSISTWYAMGWYRQATGKERELVAAINSGDSTYYADSVKGRFTISRDNAKNTVYLQMNSLKPEDTAVYYCAASSYSSKPFDYWGQGTQVTVSS”: the “polyreactivity (PSR sort gate)” value was “high polyreactivity”.

Turning to “QVQLVESGGGLVQAGGSLRLSCAASGSISTYYAMGWYRQAPGKERELVAAISKSGGSTYYADSVKGRFTISRDNAKYTVYLQMNSLKPEDTEVYYCAARYKGRAFWMDYWGQGTQVTVSS”, the “polyreactivity (PSR sort gate)” value is recorded as “high polyreactivity”.

“QVQLVESGGGLVQAGGSLRLSCAASGSISVWYVMGWYRQAPGKERELVAAITRSGGSTFYADSVKGRFTISRDNAKNTVYLQMNSLKPEDTAVYYCAADGGVAWGYGYWGQGTQVTVSS”: the “polyreactivity (PSR sort gate)” value was “low polyreactivity”.

In the case of “QVQLVESGGGLVQAGGSLRLSCAASGSISVYNAMGWYRQAPGTERELVAAISWSGGRTSYADSVKGRFTISRDNAKNTVYLQMNSLKPEDTAVYYCAADELTVLWDEDYWGQGTQVTVSS”, the “polyreactivity (PSR sort gate)” value is on record as “low polyreactivity”.

“QVQLVESGGGLVQAGGSLRLSCAASGSISWLYAMGWYRQAPGKEREFVAAISESGDTYYADSVKGRFTISRDNAKNTVYLQMNSLKPEDTAVYYCAATRPDGVTYDYWGQGTQVTVSS”: the “polyreactivity (PSR sort gate)” value is listed as “low polyreactivity”.

On to “QVQLVESGGGLVQAGGSLRLSCAASGSISWVYAMGWYRQAPGKERELVADITDSGDSTYYADSVKGRFTISRDNAKNTVYLQMNSLKPEDTAVYYCAADGWRHYYIYWPYNYWGQGTQVTVSS”, for which the “polyreactivity (PSR sort gate)” value is on record as “low polyreactivity”.

On to “QVQLVESGGGLVQAGGSLRLSCAASGSISYPKAMGWYRQAPGKERELVAAINSGDRTNYADSVKGRFTISRDNAKNTVYLQMNSLKPEDTAVYYCARRRYFLWGGYGYWGQGTQVTVSS”, for which the “polyreactivity (PSR sort gate)” value is “low polyreactivity”.

As for “QVQLVESGGGLVQAGGSLRLSCAASGSIVAWYGMGWYRQAPGKERELVAAISTAGSTNYADSVKGRFTISRDNAKNTVYLQMYSLKPEDTAVHYCAKKSSWYYPERFDYWGQGTQVTVSS”, the “polyreactivity (PSR sort gate)” value was “low polyreactivity”.

As for “QVQLVESGGGLVQAGGSLRLSCAASGSIVDYNAMGWYRQPPGKERELVAAISSGGSTYYADSVKGRFTISRDNAKNTVYLQMNSLKPEDTAVYYCAVKFWLVIQFDYWGQGTQVTVSS”, the “polyreactivity (PSR sort gate)” value is on record as “low polyreactivity”.

As for “QVQLVESGGGLVQAGGSLRLSCAASGSIVENMGWYRQAPGKERELVAAISSSGDSTYYADSVKGRFTISRDNAKNTVYLQMNSLKPEDTAVYYCAADFYYYKKQYDYWGQGTQVTVSS”, the “polyreactivity (PSR sort gate)” value is listed as “low polyreactivity”.

In the case of “QVQLVESGGGLVQAGGSLRLSCAASGSIVGYYAMGWYRQAPGKEREFVARISSSTDSTYYADSVKGRFTISRDNAKKTVYLQMNSLKPEDTAVYYCNADDTWYYGYWGQGTQVTVSS”, the “polyreactivity (PSR sort gate)” value is given as “low polyreactivity”.

As for “QVQLVESGGGLVQAGGSLRLSCAASGSIVRYYAMGWYSQAPGKERELVAAISYRGGTTYYADSVKGRFTISRDNAKNTVYLQMNSLKPEDTAVYYCAAGYKAAGWTQYGYWGQGTPVTVSS”, the “polyreactivity (PSR sort gate)” value is on record as “high polyreactivity”.

As to “QVQLVESGGGLVQAGGSLRLSCAASGSIVSGYAMGCYRQARGKERELVDAITRSGGRTYYADSVKGRFTISRDNAKNTVYLQMNSLKPEDTAVYYCAARGGPGDDYWGQGTQETVSS”, the “polyreactivity (PSR sort gate)” value is “high polyreactivity”.

Regarding “QVQLVESGGGLVQAGGSLRLSCAASGSIVVGYAMGWYRQAPGKERELVAAITGSGTRTYYADSVKGRFTISRDNAKNTVYLQMNSLKPEDTAVYYCAAPLSYKNVKYDYWGQGTQVTVSS”, the “polyreactivity (PSR sort gate)” value is given as “low polyreactivity”.

Take “QVQLVESGGGLVQAGGSLRLSCAASGSIVVRNAMGWYRQAPGKERELVAAITYRGGSTYYADSVKGRFTISRDNAKNTVYLQMNSLNPEDTAVYYCFDVNTDVLSRVYRGWGYYYWGQGTQVTVSS”: the “polyreactivity (PSR sort gate)” value is given as “low polyreactivity”.

Take “QVQLVESGGGLVQAGGSLRLSCAASGSIYASNTMGWYRQAPGKERELVAGITKIGSSTYYADSVKGRFTISRDNAKNTVYLQMNSLKPEDTAVYYCNAYGPNIYSSRYDYWGQGTQVTVSS”: the “polyreactivity (PSR sort gate)” value is “low polyreactivity”.

Regarding “QVQLVESGGGLVQAGGSLRLSCAASGSIYAYYAMGWYRQAPGKERELVATISGGGVGTYYADSVKGRFTISRDNAKNSVYLQMNSLKPEDTAVYYCAADGAQAVIYGDRIEMDYWGQGTQVTVSS”, the “polyreactivity (PSR sort gate)” value was “low polyreactivity”.

Take “QVQLVESGGGLVQAGGSLRLSCAASGSIYDRYVMGWYRQAPGKERELVAAISKSGGNTYYADSVKGRFTISRDNAKNTVYLQMNSLKPEDTAVYYCNARSGRYYLGYGYWGQGTQVTVSS”: the “polyreactivity (PSR sort gate)” value is recorded as “high polyreactivity”.

For the sequence “QVQLVESGGGLVQAGGSLRLSCAASGSIYEYYVMGWYRHAPGKERELVAAISYSGDSTYYADSVKGRFTISRDNAKNTVYFQMNSLKPEDTAVYYCAAQYSRVIPPGYDYWGQGSQVTVSS”, the “polyreactivity (PSR sort gate)” value was “high polyreactivity”.

With “QVQLVESGGGLVQAGGSLRLSCAASGSIYGLYAMGWYRQAPGKERELVATITSGSSTNYADSVKGRFTISRDNAKNTVYLQMNSLKPEDTAVYYCAVDDLYGFDYWGQCTQVTVSS”, the “polyreactivity (PSR sort gate)” value is reported as “low polyreactivity”.
